The DeepSol protein solubility set

Assay: soluble on expression in E. coli; label from the status in PepcDB or PDB records

**Q.** For “MGSDKIHHHHHHMDLPDSASRVFCGRILSMVNTDDVNAIILAQKNMLDRFEKTNEMLLNFNNLSSARLQQMSERFLHHTRTLVEMKRDLDSIFRRIRTLKGKLARQHPEAFSHIPEASFLEEEDEDPIPPSTTTTIATSEQSTGSCDTSPDTVSPSLSPGFEDLSHVQAGSPAINGRSQTDDEEMTGE”, which “soluble on expression in E. coli” value is on record?
**A.** not soluble

**Q.** For “MIGGGIGISFRNEFFNPQTPVNIPVQGFSNGARLRLVLLPTSADSRFHINLRTPDDIVLHFNARFDEGAVVNNSTSGGGWQSEDRHANPFQQNKIYTLEFVSNGGIISIFVNGAHFADFVERTPSHGVHLIEIEGGVHVHSAHVSH”, which “soluble on expression in E. coli” value is on record?
**A.** soluble

**Q.** Which “soluble on expression in E. coli” value does the source give for “MRRNISIPASDSESALPGSPQGSDAHVSWWCGCGVIVGMSVSLLRGRTVRRALSVLVVAGLLGAGVTGCSNDAGAKTENTIDASPTPTNTTTDGDGDSTEEPVENTPAEPEQRPTPVEPEAMKTGDKAGAIAAAQFFVEVFDYDARTSSTTLMDKYAYKKCTLCNEMRSDKQRLIDEGEISFWAEYSEAEYINSTFVGDEEIIWEVDTETSYLEHVRSLTSNEITSTRTDLILTMQIGWLGDRWELVSLGYSKK” here?
**A.** not soluble

**Q.** Which “soluble on expression in E. coli” value does the source give for “MSLQKEEILKLPISYKNIRLIRLNLPQKEQFVSGIGVRNSRKALIIEWEDDNGTKGYGECSCRPDPYYSDEFIEGAIALVNQFIVPFLKQNQTFGDLLKLLDKIRGWNFTKAAVEMAALQVIEQNTGKSPFQLLQNKPLAHVPVGISLGLYTDVDRMKKVVKNALETGYKRLKFKISPKVRVDFFEEINPMLFEADTFVSFDANGSFGENDLDIFHYFANTYQSMIEQPFAPTRFDILSKVKKEHPEIYICYDEEIKSIGDLIKLHHLGMLDEVNLKVGRVGGVMKSIEIIQYCAEHNIPCWIGGMFETGIGRTLNLRMASYLPNARAHDLSPSDRYFLEDIVQPNVQMNNGLVNMESLKNCTIQPNLIDKYTIDQKTLTRICEGHHHHHH” here?
**A.** soluble

**Q.** Which “soluble on expression in E. coli” value does the source give for “MQSWYLLYCKRGQLQRAQEHLERQAVNCLAPMITLEKIVRGKRTAVSEPLFPNYLFVEFDPEVIHTTTISATRGVSHFVRFGASPAIVPSAVIHQLSVYKPKDIVDPAPPYPGDKVIITEGAFEGFQAIFTEPDGEARSMLLLNLINKEIKHSVKNTEFRKL” here?
**A.** not soluble

**Q.** For “MTPAQLTGTTDSHLQSTMVGQKAFLMHPDVANDLLNMIEAAKKAGFKMEIASGFRDFSRQRAIWNGKYEGELPILDSNSQPLNKAALSDEEKLKAILRWSALPGGSRHHWGCDFDVYARNLLPPDTKLQLEPWEYLEGHQLAFYCWLKDHIDEFGFFFPYLQDLGGVAIEPWHISHKAIGQQCAAQLNAEMLKDELVRQNQQHNIAGLESILNNLDSILSTYIRNITPPPEAL”, which “soluble on expression in E. coli” value is on record?
**A.** not soluble

**Q.** With “MNPPDISVLIVSFNTRDLLRRCLASLRDQAGGTGIETIVVDNASRDGSADMVEAEFPDVRLIRSPVNLGFGNANNLAFTQSRGRYLVLLNSDACLAPGLLDAASKRMDACPDVGMAGGRLVGPEGGWQPSARMFPSLLNEFLVLSGLAHRYPKSRLFGRFDRTWADPSEEAGVDWVPGAFAILRRDLIDRIGFFDPRFFLYYEEVDLCRRIRAAGCKIMYWPELVITHLGGESAKTLSDMEFSSHASQLTLWRMRSQALYYRKWHGLALAWSAKTLEQLWHWLRALRHRRSAPAKAHDSEALIRLWNRAWKETEGGRVSPPQPWLEHHHHHH” as the sequence, how does the “soluble on expression in E. coli” value read?
**A.** not soluble

**Q.** With “MGKSYKEIIELLDCNQTTIWRNVKKYEEFGLDSLLQETRGGRNHAYMTVEEEKAFLARHLKATEAGEFVTIDALFQVYKKECG” as the sequence, how does the “soluble on expression in E. coli” value read?
**A.** not soluble

**Q.** With “MGSDKIHHHHHHHTDKAEFLDFSNLTQYRQDVKTLASDAFEGRAPLSKGETLTLDFLVNAFKEMGLAPGFGDSYLQAVPMAKITAKQDMQLTIGALKFTHGKDFTARSQQIKPHIALNNSEVVFVGYGINAPEFGWNDYAGIDVKGKTVIMLVNDPGFATQDNKRFKGNAMTYYGRWTYKYEEAARQGAAAVFIVHETAPAGYGWGVVENSNTGSKFTLVDDNNNLSQIAVMGWLQHKATQQIFATAGLDFDSLKLSTHKAGFKTVDLNLSAKLNLDNSIEMAKSHNVLALLPGATEFDGKRNPQQDELVVMHAHWDHLGSKTHQDGSQEIFNGAVDNASGTAGVLALARAFKAKASVTPFKRSILFSAFTAEETGLIGAQYFAQNPSVPTKNIAAFLNIDGMNVNDGVSYILQYGQGVSELEDYLEDAAKAQQRTVKADPLPQNGLMFRSDHFALAQEGVPGLLFMSLGDTDPNYIDAKYHKEADDYDANWSLGGVSQDLSLIGSILARLANNSDWPKWLEDSDFKTRRSEDNR” as the sequence, how does the “soluble on expression in E. coli” value read?
**A.** not soluble

**Q.** Which “soluble on expression in E. coli” value does the source give for “MSLDLSASRSDGGDPLRPASPRLRSPVSDGGDPLRPASPRLRSPVSDGGDPLRPASPRLRSPLGASRPVVGLTAYLEQVRTGVWDIPAGYLPADYFEGITMAGGVAVLLPPQPVDPESVGCVLDSLHALVITGGYDLDPAAYGQEPHPATDHPRPGRDAWEFALLRGALQRGMPVLGICRGTQVLNVALGGTLHQHLPDILGHSGHRAGNGVFTRLPVHTASGTRLAELIGESADVPCYHHQAIDQVGEGLVVSAVDVDGVIEALELPGDTFVLAVQWHPEKSLDDLRLFKALVDAASGYAGRQSQAEPREGGSHHHHHH” here?
**A.** soluble

**Q.** For “MSLKHSKIRIAHISDIHIGSRLDKLPQKMVNKIIEENPDLVVITGDLIDSHNVISTDLASFNAFKERNIPIYYTIGNHDIMAGEEYVSSILEYYGIIYLKNQVTQITIGDETIQLVGIDDVQSITKYNEIFNSITPSIHNNIYTILLHHRPQGYKTSVQSGQIDLQLAGHTHDGQVFPFNYIVPLFHSKSYGMYHIKDTSKELILYTHPGSCAWGPHFRTAAKNLITIFSIESSNEGHHHHHH”, which “soluble on expression in E. coli” value is on record?
**A.** soluble

**Q.** Which “soluble on expression in E. coli” value does the source give for “MSLSSILECIRTVGRGERGRKPLNFDQAFRVMDEYLNGECGDDQMAMLLMLIRVQNETQQEIAGFVKAFQSRMPAIGADIDWPCYAGKREAAGQPWHLLAAKILADNGHKVLMHGYHDRQPGRLHAEDYLDKFAIKKAESAEDAKRVLETQNIVYLPLSAFAPQAETMIGWKNRYGLRTPINTVVRALNPGQATVGIRGSFHPGFQQLHAEVEYEIGQTAHAVVSFKGQSGESEYNPKVSQTVWLSQPSGVTSHYWTEQMLSEVPMPTVCPFGTEETDMNQMANTVLTTIAVVLFAEMHDREQAFERAFSYWASYCAAEGHHHHHH” here?
**A.** soluble

**Q.** For GSAAEVMKKYCSTCDISFNYVKTYLAHKQFYCKNKP, which “soluble on expression in E. coli” value is on record?
**A.** soluble

**Q.** For “GMVEPMTPRFKYTKASQENIQQLGNILEQCFVMSFGDSEIYVKGIGLENFRVIYREQKVAGGLAILPMGQWWGGQRVPMAGIAAVGIAPEYRGDGAAIALIQHTLQEISEQDIPISVLYPATQRLYRKAGYEQAGSSCVWEIPTDSIQIQHASLPLEPVVLKNNPIFHELYQQQAQLTHGYLDRHPAIWQGLNRTLDTETLYSYLIGDKDKPQGYIIFTQERTRDGSILRIRDWVTLSNPAVQSFWTFIANHRSQIDKVTWKSSVIDALTLLLPEQSATIRSQDRWMLRIVNVCKALEARGYPLGVEAELHLEVQDDLLATNQGKFILSVANGKSEVTKGGKGELQLDIKGLASLYTSLFTPRQLQLTGKLQATETALLKATQIFAGESPWMIDFF”, which “soluble on expression in E. coli” value is on record?
**A.** soluble

**Q.** For “MSLDYSTSLRFQSQLERSMTEALNALGYYHPSIDFTVSEDNQRLRAAVTLGEVTRLSEVDIVIRGEAEGDRDFQRLIRRSGLRVDAPLNHSLYDNLKSGIRNLALQKGYFNGDFQASRLEVIPELNQARVILHFDSGIRYLFGATTVEGSQIDENRVMSLRPFKQGEPYLVSQVGEFNQNLSNTDWFSSVFVEPDLSQLDEGRELPIKVTLAPQARNQLETGLGYSTDVGVRGSLKWKKPWVNSQGHSFDSSFSLSIPEQTITAGYKIPLEDALNEYYRIQYGMKHLDKRDTESLESNLSLERHWQLDGGWHRTVFIRYLLENYRQGLQDDNSQFLLPGMTYTRTRTRSNSGLLTWGDKQTITLEYGDPALLSETRVLRLQTGSSWLRTYARNHRALVRVDGGANLVDEFDQLSPSLRFFAGGDNNLRGYGYKSISPQDASGALTGAKYIATSSIEYQYRLTGNWWAAMFMDVGDAFNDNPEWKKGVGTGIRWISPVGPIRLDFAWGLDAAPGDEFKIHFTLGPELEGHHHHHH”, which “soluble on expression in E. coli” value is on record?
**A.** not soluble

**Q.** With “MGSDKIHHHHHHASCSNDDDEMDKYQKIYIRTGVAPGAEMGAAVVVDCVSNSSTADRSDFEIQLCAVQPVTRDVTAALGVDTLKVDTYNSANKTKCKLLPQDNYTIETSEVVLKTGQTVADSSFQVVLKNIEKLTNPDGYVLPVTLKGVTGMDEQAVSTSMKTVYIRIYTSVLYTSYTKPGNWSAVDRSAWSVSCSNVYADDDAKYGAHLAIDGEINTTWFTWGVANAGECWWNTVLDRPVTLTGFSVTKQSAYGSGYNLRSAEIKVRKEGETEWVTYPRVLTFRNFKGADPQYAAIEPPIPNVKEFRINCLTPDNYTGFAEINLYVKQ” as the sequence, how does the “soluble on expression in E. coli” value read?
**A.** not soluble

**Q.** Which “soluble on expression in E. coli” value does the source give for “MGSDKIHHHHHHMRWFHKKGELARDGWQSVVDATTPGWEYTGIRIAELGSGESLELNDTGVERIFIPLQGSFDVAHHGQVTHLHGRKSVFDGPTDVLYLPTGQTATLSGQGRVAVAEAPTQEPKEWKYIAPAETPVELRGAGRSSRQVHNFGTPEALDAARLIVCEVITPGENWSSYPPHKHDEHIPGHESKLEEIYYFESAPSRVGGRAEAAEGAFGMFSTYSSPAGEIDINAMVYSGDIALVPFGYHGPAVAAPGYDLYYLNVMAGPDPERIWLINDDPAHAWVRDTWTGQAFDDRLPYENANKEG” here?
**A.** not soluble

**Q.** For “NLRSIIESPSFKNAESKLTVAMGYRINNEPLLMDIAKTPHALIAGATGSGKSVCINSILMSLLYKNHPEELRLLLIDPKMVELAPYNGLPHLVAPVITDVKAATQSLKWAVEEMERRYKLFAHYHVRNITAFNKKAPYDERMPKIVIVIDELADLMMMAPQEVEQSIARIAQKARACGIHMLVATQRPSV”, which “soluble on expression in E. coli” value is on record?
**A.** not soluble

**Q.** For “MSLSKIIFPGFIDLHNHFPQTQVIASYGTKLLEWLNKYTFPNESLFVDDKHCERESKIFLDLLNHNGITTSVSFGSVHPNSVEYLFQEAHRRNMCVIAGNVLMDRNAPDTVLEKADKSYLSSKEIISKWHNVSRCKYAITPRFAITSTPELMEVSQTLCAENQSCYVQTHLSENIDEIETTLELFPDQKDYLSIYDKYKLLSNKTLLAHSIHLEMSEIERMKETKSIAVHCPTSNLFLGSGLFKFKELEEKGVRTAIATDVGGGTSFSMLRTLDEAYKVQQLGNYSLNPLASYFWSTMEGHHHHHH”, which “soluble on expression in E. coli” value is on record?
**A.** soluble

**Q.** Which “soluble on expression in E. coli” value does the source give for “MGFSDLRDKVVIVTGASMGIGRAIAERFVDEGSKVIDLSIHDPGEAKYDHIECDVTNPDQVKASIDHIFKEYGSISVLVNNAGIESYGKIESMSMGEWRRIIDVNLFGYYYASKFAIPYMIRSRDPSIVNISSVQASIITKNASAYVTSKHAVIGLTKSIALDYAPLLRCNAVCPATIDTPLVRKAAELEVGSDPMRIEKKISEWGHEHPMQRIGKPQEVASAVAFLASREASFITGTCLYVDGGLSIRAPISTPELEHHHHHH” here?
**A.** soluble

**Q.** With “MRRVETDSTGQIEVDNDKYWGAQTQRSIEHFSIGSDLMPIEVIKALAIIKKAAAITNHQLGILARTKKEIIIKVADEIIAGELDEHFPLRVLMTGSGTQSNMNVNEVISNRAIELLGGKKGSKNPIHPNDDVNMSQSSNDTFPSAMYIATALEINNRLLPALEYMQQQLADKAKQWDDIVKIGRTHMQDAVPLTLGQEFSGYAALLENNIQRIKDTLKYVYQLALGGTAVGTGLNAPDGFAEITAKYIATITSLAFVSATNKFEVQGSHDALVAVMGQLKTLANSLFKIANDIRLLSCGPRAGFHELLIPENEPGSSIMPGKVNPTQCEAMAMVAAQVIGYDVAVGIGGSAGYLEMNVYKPLIIFNIIQSIKIISDSCVNFTKYLLEGMKPNHDKIEFYLKNSLMLVTALSPVIGYDKAAKLAHYAEQKNISLAEANQELKFLSKEEFDKVVDPYKMTKGGIL” as the sequence, how does the “soluble on expression in E. coli” value read?
**A.** not soluble
